Here are results for 8 molecules from US20110212084A1 (AstraZeneca / MedImmune, published 2011).

The target in assay [1] is human IgEλ (U266 derived) (human, UniProt P01854 1-546). Description: cell-based or functional assay.
The target of assay [2] is T1, cynomolgus IgE (recombinant chimaeric D12 variable region / cynomolgus IgE constant region) (cynomolgus monkey (constant region)). The assay can be described thus: cell-based or functional assay.
In assay [3] the target is T2, human IgE (source not stated for the assay) (human, UniProt P01854-1 1-428).
T2 construct: also called purified human IgE; IgE (Calbiochem or U266-derived)
Description: SPR, BIAcore 2000; IgE amine-coupled to CM5 chip, IgG as analyte, bivalent analyte model; geomean. As for the experimental part: (§1) The binding affinity of purified IgG samples of a representative number of clones to human and cynomolgus IgE was determined by surface plasmon resonance using BIAcore 2000 biosensor (BIAcore AB) essentially as described by Karlsson et al 1991; Journal of Immunological Methods 145 (1-2) 229-240. In brief, purified human or cynomolgus IgE was covalently coupled to the surface of a CM5 sensor chip (BIAcore) using standard amine coupling reagents according to the manufacturer's instructions to provide a surface density of 100 RU. IgG samples prepared in HBS-EP buffer (BIAcore (AB), at a range of concentrations, between 250 nM and 15.6 nM were passed over the sensor chip surface. The surface was regenerated using 10 mM Glycine, pH 1.75 between each injection of antibody. The resulting sensorgrams were evaluated using BIA evaluation 3.1 software and fitted to a bivalent analyte model, to provide relative binding data.

Assay [4] deals with T2, human IgE (source not stated for the …). Description: cell-based or functional assay.
Assay [5] has as its target T3, human IgE Cε3-Cε4 domain, C-terminally tagged with FLAG His10 (human, UniProt P01854-1 209-428, limits assumed).
T3 construct: domain: Cε3-Cε4; secreted with murine IgG1 leader from HEK293-EBNA cells; also called human IgE Ce3-4; human IgE Cε3-Cε4 domain (in house HEK-EBNA derived)
The assay can be described thus: DELFIA epitope competition; competitor vs biotinylated human IgE on immobilised IgG. As to the method:
(§2) Purified IgG were adsorbed onto 96-well Maxisorp microtitre plates (Nunc) in PBS at a concentration which gave a significant signal when biotinylated human IgE was added at approximately its estimated KD for that particular IgG. Excess IgG was washed away with PBS-Tween (0.1% v/v) and the wells were blocked with PBS-Marvel (3% w/v) for 1 h. […] To this series, an equal volume of biotinylated human IgE at a concentration of approximately the KD was added (resulting in a series starting at a ratio of competitor antigen:biotinylated human IgE of approximately 1000:1). These mixtures were then transferred onto the blocked IgG and allowed to equilibrate for 1 h. Unbound antigen was removed by washing with PBS-Tween (0.1% v/v), while the remaining biotinylated human IgE was detected by streptavidin-Europium3+ conjugate (DELFIA® detection, PerkinElmer). Time-resolved fluorescence was measured at 620 nm on an EnVision plate reader (PerkinElmer). Fluorescence data were analysed using either Graphpad Prism or Microsoft Excel software.

The target of assay [6] is T4, Cynomolgus Cε3-4 FLAG His10 (cynomolgus monkey).
T4 construct: also called cynomolgus IgE Cε3-Cε4 domain (in house HEK-EBNA derived)
T4 chain: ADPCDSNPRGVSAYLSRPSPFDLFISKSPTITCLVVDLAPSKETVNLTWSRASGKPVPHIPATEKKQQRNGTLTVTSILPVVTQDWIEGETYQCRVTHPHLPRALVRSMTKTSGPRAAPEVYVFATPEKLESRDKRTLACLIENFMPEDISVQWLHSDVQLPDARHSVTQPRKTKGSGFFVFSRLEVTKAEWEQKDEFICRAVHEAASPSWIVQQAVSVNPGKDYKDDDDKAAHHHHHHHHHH
Described as above. As to the method: as §2

The target in assay [7] is T5, human IgEλ (U266 derived) (human, UniProt P01854 1-546). Description: cell-based or functional assay. This is another data set of the same source.
Assay [8] has as its target T1, cynomolgus IgE (recombinant chimaeric …). The assay can be described thus: SPR, BIAcore 2000; cynomolgus IgE amine-coupled to CM5 chip, IgG as analyte, bivalent analyte model; geomean. As to the method: as §1
In assay [9] the target is T5, human IgEλ (U266 derived). The assay can be described thus: flow cytometry competition; IgG titrated, mixed with IgE (U266, 10 µg/mL), IgE binding to CD23 on IL-4 treated IM9 cells. As for the experimental part: Some of these optimised antibodies were evaluated for inhibition of the IgE/CD23 interaction using the IM9 binding assay as previously described.
Antibody dilutions (667 nM to 1 nM) were prepared in U-bottomed polypropylene plates (Greiner) and mixed with IgE (U266-derived [Ikeyama et. al. 1986. Molecular Immunology 23 (2); p159-167]) to a final IgE concentration of 10 μg/mL for 30 minutes at room temperature. Cell plates were spun at 2000 rpm for 2 minutes and supernatant was aspirated, leaving the cell pellet intact. Cells were resuspended in 100 μL/well antibody/IgE mix and incubated on ice for 1 hour. Cell plates were centrifuged at 2000 rpm for 2 minutes and antibody/IgE supernatants were aspirated. Cells were washed by resuspending in 200 μL/well of Flow buffer and centrifuging as above.
IgE bound to the cell surface was detected with anti-IgE-phycoerythin (Caltag) diluted 1/30, v/v, 100 μL/well. Assay plates were incubated on ice for 20 minutes in the dark before centrifuging at 2000 rpm for 2 minutes and washing with 2×200 μL of Flow buffer as described above. Cells were resuspended in 100 μL Cell Fix (BD biosciences) and analysed using a FACSCalibur (BD Biosciences) to detect FL2 staining.
On the technique in general: In flow cytometry, cells or beads pass a laser one at a time.

For assay [10], the target named is T5, human IgEλ (U266 derived). Description: cell-based or functional assay. This is another data set of the same source.

T2 sequence (P01854 other isoform, or with tags, fused parts or gaps): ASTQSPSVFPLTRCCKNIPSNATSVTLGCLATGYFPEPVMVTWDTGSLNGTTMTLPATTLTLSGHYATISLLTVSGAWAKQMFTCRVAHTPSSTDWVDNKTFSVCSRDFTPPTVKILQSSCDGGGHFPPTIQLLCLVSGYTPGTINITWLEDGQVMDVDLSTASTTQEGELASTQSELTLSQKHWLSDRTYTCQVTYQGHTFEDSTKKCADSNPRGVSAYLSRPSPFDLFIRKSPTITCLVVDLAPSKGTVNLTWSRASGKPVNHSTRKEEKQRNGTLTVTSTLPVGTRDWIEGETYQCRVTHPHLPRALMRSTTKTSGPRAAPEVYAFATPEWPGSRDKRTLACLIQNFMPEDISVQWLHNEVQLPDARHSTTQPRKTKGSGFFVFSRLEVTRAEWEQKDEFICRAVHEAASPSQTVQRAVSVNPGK
T1 sequence (heavy, as listed by the source limits assumed, chain 1 of 2): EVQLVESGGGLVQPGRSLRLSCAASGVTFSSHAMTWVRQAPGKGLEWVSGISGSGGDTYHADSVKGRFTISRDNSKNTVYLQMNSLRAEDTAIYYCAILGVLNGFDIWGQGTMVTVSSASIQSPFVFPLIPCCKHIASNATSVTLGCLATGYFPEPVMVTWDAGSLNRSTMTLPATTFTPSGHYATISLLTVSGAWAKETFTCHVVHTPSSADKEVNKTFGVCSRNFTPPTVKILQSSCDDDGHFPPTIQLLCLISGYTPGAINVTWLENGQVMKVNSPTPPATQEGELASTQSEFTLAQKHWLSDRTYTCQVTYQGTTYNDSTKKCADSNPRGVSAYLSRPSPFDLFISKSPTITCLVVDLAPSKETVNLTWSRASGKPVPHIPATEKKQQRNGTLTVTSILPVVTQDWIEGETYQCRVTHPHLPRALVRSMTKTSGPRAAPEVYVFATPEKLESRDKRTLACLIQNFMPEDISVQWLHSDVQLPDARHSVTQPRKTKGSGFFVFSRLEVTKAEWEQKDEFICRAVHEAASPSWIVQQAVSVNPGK
T1 sequence (light, as listed by the source limits assumed, chain 2 of 2): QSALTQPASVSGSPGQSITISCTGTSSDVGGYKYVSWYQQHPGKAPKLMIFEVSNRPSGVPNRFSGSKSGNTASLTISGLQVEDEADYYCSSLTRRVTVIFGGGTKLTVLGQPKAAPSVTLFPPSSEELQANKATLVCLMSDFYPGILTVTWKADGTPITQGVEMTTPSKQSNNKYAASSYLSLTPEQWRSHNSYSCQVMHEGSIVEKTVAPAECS
T3 sequence (P01854 other isoform, or with tags, fused parts or gaps limits assumed): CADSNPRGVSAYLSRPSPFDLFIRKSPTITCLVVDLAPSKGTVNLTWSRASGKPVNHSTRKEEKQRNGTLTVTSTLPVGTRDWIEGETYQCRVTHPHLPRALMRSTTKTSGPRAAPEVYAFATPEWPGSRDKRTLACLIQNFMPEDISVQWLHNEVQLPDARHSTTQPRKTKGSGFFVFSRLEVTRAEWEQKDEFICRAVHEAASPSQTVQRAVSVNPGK

B1: Antibody 26 (IgG) (antibody, V domains shown)
VH: EVQLLESGGGLVQPGGSLRLSCAASGLTFSGYAMSWVRQAPGKGLEWVSAISGSGGRTYYADSVKGRFTISRDNSKNMLYLQMNSLRAEDTAVYYCARHIAVAGTRGFDYWGRGTLVTVSS
VL: SFVLTQPPSVSVSPGQTASITCSGDKLGDTYASWYRQRSGQSPVLVIYQDDKRPSGIPERFSGSNSGNTATLTIGGTHTMDEADYYCLAWDTRTSGAVFGGGTKLTVL
As for B1, the “RBL-ER51 calcium signalling IC50 (nM) Geomean, human IgE 25 ng/ml” value in assay [1] is 1.2 nM. Further, the “RBL-ER51 calcium signalling IC50 (nM) Geomean, cynomolgus IgE 100 ng/ml” value in assay [2] was 17 nM.

B2: Antibody 34 (IgG) (antibody, V domains shown)
VH: EVQLLESGGGLVQPGGSLRLSCAAPGFTLSSYAMSWVRQAPGKGLEWVSAISGGSGGRTYYADSVKGRFTISRDNSKNTLYLQMNSLRAEDTAVYYCARHIAVAGTRGFDYWGRGTLVTVSS
VL: SYVLTQPPSVSASPGQTASITCSGDKLGDTYASWYRQRSGQSPVLVIYQDDKRPPGIPERFSGSNSGNTATLTIRGTHTMDEADYYCLAWDTRTSGAVFGGGTKLSVL
For B2, the “RBL-ER51 calcium signalling IC50 (nM) Geomean, human IgE 25 ng/ml” value in assay [1] was 0.223 nM. Also, in assay [2], the “RBL-ER51 calcium signalling IC50 (nM) Geomean, cynomolgus IgE 100 ng/ml” value stood at 22 nM. In addition, in assay [3], the Kd was 26 nM.

B3: Antibody 1 (IgG) (antibody, V domains shown)
VH: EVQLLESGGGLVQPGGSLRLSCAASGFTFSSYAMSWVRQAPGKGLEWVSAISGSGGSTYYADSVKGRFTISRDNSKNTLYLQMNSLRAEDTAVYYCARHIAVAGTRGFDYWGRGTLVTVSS
VL: SYVLTQPPSVSVSPGQTASITCSGDKLGDKYASWYRQRSGQSPVLVIYQDDKRPSGIPERFSGSNSGNTATLTISGTHTMDEADYYCLAWDTRTSGAVFGGGTKLTVL
notes: also called parent antibody
With B3, the “RBL-ER51 calcium signalling IC50” value in [4] worked out at 267 nM. Besides, the binding result in assay [5] and in assay [6] was “no binding” each time.

B4: Antibody 10 (IgG) (antibody, V domains shown)
VH: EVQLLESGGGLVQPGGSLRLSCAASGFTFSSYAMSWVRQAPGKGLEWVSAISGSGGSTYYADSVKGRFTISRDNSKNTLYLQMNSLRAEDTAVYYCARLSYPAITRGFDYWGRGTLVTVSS
VL: SYVLTQPPSVSVSPGQTASITCSGDKLGDKYASWYRQRSGQSPVLVIYQDDKRPSGIPERFSGSNSGNTATLTISGTHTMDEADYYCLAWDTRTSGAVFGGGTKLTVL
As for B4, in [1], the “RBL-ER51 calcium signalling IC50 (nM) Geomean, human IgE 25 ng/ml” value turned out to be 1.5 nM. Also, the Kd in [3] came to 1.3 nM.

B5: Antibody 9 (IgG) (antibody, V domains shown)
VH: EVQLLESGGGLVQPGGSLRLSCAASGFTFSSYAMSWVRQAPGKGLEWVSAISGGSGGRTYYADSVKGRFTISRDNSKNTLYLQMNSLRAEDTAVYYCARHIAVAGTRGFDYWGRGTLVTVSS
VL: SFVLSQPPSVSVSPGQTASITCSGDKLGDTYASWYRQRSGQSPVLVIYQDDKRPSGIPERFSGSNSGNTATLTISGTHTMDEADYYCLAWDTRTSGAVFGGGTKLTVL
Take B5: in assay [1], the “RBL-ER51 calcium signalling IC50 (nM) Geomean, human IgE 25 ng/ml” value worked out at 0.286 nM. For the same molecule, in assay [2], the “RBL-ER51 calcium signalling IC50 (nM) Geomean, cynomolgus IgE 100 ng/ml” value was found to be 4.5 nM. Also, the Kd in [3] was found to be 79 nM.

B6: Antibody 33 (IgG) (antibody, V domains shown)
VH: EVQLLESGGGLVQPGGSLSLSCAAPGFTFSSYAMSWVRQAPGKGLEWVSAISGGSGGRTYYADSVKGRFTISKDNSKNTLYLQMNSLRAEDTAVYYCARHIAVAGTRGFDYWGRGTLVTVSS
VL: SYVLTQPPSVSVSPGQTASITCSGDKLGDTYASWYRQRSGLSPALVIYQDDKRPSGIPERFSGSNSGNTATLTISGTHTMDEADYYCLAWDTRTSGAVFGGGTKLTVL
For the molecule B6, the “RBL-ER51 calcium signalling IC50 (nM) Geomean, human IgE 25 ng/ml” value in assay [7] worked out at 0.112 nM. In assay [2], the “RBL-ER51 calcium signalling IC50 (nM) Geomean, cynomolgus IgE 100 ng/ml” value came out at 5.1 nM. Also, the values for the Kd in assay [3] and in assay [8] were 0.8 nM and 2.3 nM, respectively. For the same molecule, in assay [9], the 50% inhibitory concentration (IC50) (in general, the concentration that inhibits the measured activity by half) was found to be 83 nM.

B7: Antibody 15 (IgG) (antibody, V domains shown)
VH: EVQLLESGGGLVQPGGSLRLSCAAPGFTFSSYAMSWVRQAPGKGLEWVSAISGGSGGRTYYADSVKGRFTISRDNSKNTLYLQMNSLRAEDTAVYYCARHIAVAGTRGFDYWGRGTLVTVSS
VL: SYVLTQPPSVSVSPGQTASITCSGDKLGDTYASWYRQRSGQSPVLVIYQDDRRPSGIPERFSGSNSGNTATLTISGTHTMDEADYYCLAWDTRTSGAVFGGGTKLTVL
With B7, the “RBL-ER51 calcium signalling IC50 (nM) Geomean, human IgE 25 ng/ml” value in assay [1] turned out to be 0.341 nM. Further, in assay [2], the “RBL-ER51 calcium signalling IC50 (nM) Geomean, cynomolgus IgE 100 ng/ml” value came out at 5.4 nM. Besides, the Kd in assay [3] is 0.9 nM; in assay [8] it was 7 nM.

B8: Antibody 33GL (germlined IgG) (antibody, V domains shown)
VH: EVQLLESGGGLVQPGGSLSLSCAAPGFTFSSYAMSWVRQAPGKGLEWVSAISGGSGGRTYYADSVKGRFTISKDNSKNTLYLQMNSLRAEDTAVYYCARHIAVAGTRGFDYWGRGTLVTVSS
VL: SYELTQPPSVSVSPGQTASITCSGDKLGDTYASWYQQKPGLSPALVIYQDDKRPSGIPERFSGSNSGNTATLTISGTQAMDEADYYCLAWDTRTSGAVFGGGTKLTVL
notes: germlined IgG; also called Antibody 35 (provisional application)
For the molecule B8, in assay [10], the “RBL-ER51 calcium signalling IC50 (nM) Human IgE Geomean” value turned out to be 0.197 nM. Also, the binding result in assay [5] and in [6] was “no binding” each time. For the same molecule, the Kd in [3] amounted to 0.142 nM.
